Patent US20200040059A1
Where a chain is given by its changes, count along the chain named. Names may count otherwise.

B1: variant PD-L2 IgV-Fc H15Q (Fc fusion, not shown: a dimerising Fc or GST; small tags and cut ends)
chain: FTVTVPKELYIIEQGSNVTLECNFDTGSHVNLGAITASLQKVENDTSPHRERATLLEEQLPLGKASFHIPQVQVRDEGQYQCIIIYGVAWDYKYLTLK
B2: variant PD-L2 IgV-Fc H15Q, V31M, S67L, Q82R, V89D (Fc fusion, not shown: a dimerising Fc or GST; small tags and cut ends)
chain: B1 chain with V30M, S66L, Q81R, V88D
B3: variant PD-L2 IgV-Fc E44D, S67L, Q72H, Q82R, V89D (Fc fusion, not shown: a dimerising Fc or GST; small tags and cut ends)
chain: B1 chain with Q14H, E43D, S66L, Q71H, Q81R, V88D
B4: variant PD-L2 IgV-Fc H15Q, Q72H, Q74R, R76G, I86T (Fc fusion, not shown: a dimerising Fc or GST; small tags and cut ends)
chain: B1 chain with Q71H, Q73R, R75G, I85T
B5: variant PD-L2 IgV-Fc I13V, H15Q, T47A, Q82R (Fc fusion, not shown: a dimerising Fc or GST; small tags and cut ends)
chain: B1 chain with I12V, T46A, Q81R
B6: variant PD-L2 IgV-Fc I13V, H15Q, R76G, D77N, Q82R, V89D (Fc fusion, not shown: a dimerising Fc or GST; small tags and cut ends)
chain: B1 chain with I12V, R75G, D76N, Q81R, V88D
B7: variant PD-L2 IgV-Fc H15Q, T47A, H69L, Q82R, V89D (Fc fusion, not shown: a dimerising Fc or GST; small tags and cut ends)
chain: B1 chain with T46A, H68L, Q81R, V88D
B8: variant PD-L2 IgV-Fc G28V, Q72H, R76G, I86T (Fc fusion, not shown: a dimerising Fc or GST; small tags and cut ends)
chain: B1 chain with Q14H, G27V, Q71H, R75G, I85T
B9: variant PD-L2 IgV-Fc H15Q, T47A (Fc fusion, not shown: a dimerising Fc or GST; small tags and cut ends)
chain: B1 chain with T46A
B10: variant PD-L2 IgV-Fc I13V, H15Q, S39I, E44D, S67L (Fc fusion, not shown: a dimerising Fc or GST; small tags and cut ends)
chain: B1 chain with I12V, S38I, E43D, S66L
B11: variant PD-L2 IgV-Fc I13V, H15Q, Q82R, V89D (Fc fusion, not shown: a dimerising Fc or GST; small tags and cut ends)
chain: B1 chain with I12V, Q81R, V88D
B12: variant PD-L2 IgV-Fc I13V, H15Q, Q82R (Fc fusion, not shown: a dimerising Fc or GST; small tags and cut ends)
chain: B1 chain with I12V, Q81R
B13: variant PD-L2 IgV-Fc I13V, S67L, Q82R, V89D (Fc fusion, not shown: a dimerising Fc or GST; small tags and cut ends)
chain: B1 chain with I12V, Q14H, S66L, Q81R, V88D
B14: variant PD-L2 IgV-Fc H15Q, V89D (Fc fusion, not shown: a dimerising Fc or GST; small tags and cut ends)
chain: B1 chain with V88D
B15: variant PD-L2 IgV-Fc I13V, H15Q, V89D (Fc fusion, not shown: a dimerising Fc or GST; small tags and cut ends)
chain: B1 chain with I12V, V88D
B16: variant PD-L2 IgV-Fc I13V, H15Q, T47A, Q82R, V89D (SEQ ID NO 1544) (Fc fusion, not shown: a dimerising Fc or GST; small tags and cut ends)
chain: B1 chain with I12V, T46A, Q81R, V88D
B17: variant PD-L2 IgV-Fc I13V, H15Q, V31A, N45S, Q82R, V89D (Fc fusion, not shown: a dimerising Fc or GST; small tags and cut ends)
chain: B1 chain with I12V, V30A, N44S, Q81R, V88D
B18: variant PD-L2 IgV-Fc I13V, H15Q, T47A, H69L, R76G, V89D (Fc fusion, not shown: a dimerising Fc or GST; small tags and cut ends)
chain: B1 chain with I12V, T46A, H68L, R75G, V88D
B19: variant PD-L2 IgV-Fc I12V, I13V, H15Q, T47A, Q82R, V89D (Fc fusion, not shown: a dimerising Fc or GST; small tags and cut ends)
chain: B1 chain with I11V, I12V, T46A, Q81R, V88D
B20: variant PD-L2 IgV-Fc N24D (Fc fusion, not shown: a dimerising Fc or GST; small tags and cut ends)
chain: LFTVTVPKELYIIEHGSNVTLECDFDTGSHVNLGAITASLQKVENDTSPHRERATLLEEQLPLGKASFHIPQVQVRDEGQYQCIIIYGVAWDYKYLTLK
B21: variant PD-L2 IgV-Fc I13V, E44D, Q82R, V89D (Fc fusion, not shown: a dimerising Fc or GST; small tags and cut ends)
chain: B20 chain with I13V, D24N, E44D, Q82R, V89D
B22: variant PD-L2 IgV-Fc V89D (Fc fusion, not shown: a dimerising Fc or GST; small tags and cut ends)
chain: B20 chain with D24N, V89D
B23: variant PD-L2 IgV-Fc I13V, H15Q, T47A, Q72H, R76G (Fc fusion, not shown: a dimerising Fc or GST; small tags and cut ends)
chain: B20 chain with I13V, H15Q, D24N, T47A, Q72H, R76G
B24: variant PD-L2 IgV-Fc I13V, H15Q, E44D, V89D (Fc fusion, not shown: a dimerising Fc or GST; small tags and cut ends)
chain: B20 chain with I13V, H15Q, D24N, E44D, V89D
B25: variant PD-L2 IgV-Fc Q82R, V89D (Fc fusion, not shown: a dimerising Fc or GST; small tags and cut ends)
chain: B20 chain with D24N, Q82R, V89D
B26: variant PD-L2 IgV-Fc N32D, S67L, V89D (Fc fusion, not shown: a dimerising Fc or GST; small tags and cut ends)
chain: B20 chain with D24N, N32D, S67L, V89D
B27: variant PD-L2 IgV-Fc E59G, Q82R (Fc fusion, not shown: a dimerising Fc or GST; small tags and cut ends)
chain: B20 chain with D24N, E59G, Q82R
B28: variant PD-L2 IgV-Fc S39I, V89D (Fc fusion, not shown: a dimerising Fc or GST; small tags and cut ends)
chain: B20 chain with D24N, S39I, V89D
B29: variant PD-L2 IgV-Fc H15Q, R76G, I85F (SEQ ID NO 1500) (Fc fusion, not shown: a dimerising Fc or GST; small tags and cut ends)
chain: B20 chain with H15Q, D24N, R76G, I85F
B30: variant PD-L2 IgV-Fc I13V, H15Q, R76G, I85F (Fc fusion, not shown: a dimerising Fc or GST; small tags and cut ends)
chain: B20 chain with I13V, H15Q, D24N, R76G, I85F
B31: variant PD-L2 IgV-Fc I13V, S39I, E44D, Q82R, V89D (Fc fusion, not shown: a dimerising Fc or GST; small tags and cut ends)
chain: B20 chain with I13V, D24N, S39I, E44D, Q82R, V89D
B32: variant PD-L2 IgV-Fc E44D (Fc fusion, not shown: a dimerising Fc or GST; small tags and cut ends)
chain: B20 chain with D24N, E44D
B33: variant PD-L2 IgV-Fc H15Q, S67L, R76G (Fc fusion, not shown: a dimerising Fc or GST; small tags and cut ends)
chain: B20 chain with H15Q, D24N, S67L, R76G
B34: variant PD-L2 IgV-Fc H15Q, N32D, S67L, V89D (Fc fusion, not shown: a dimerising Fc or GST; small tags and cut ends)
chain: B20 chain with H15Q, D24N, N32D, S67L, V89D
B35: variant PD-L2 IgV-Fc H15Q, T47A, Q82R (Fc fusion, not shown: a dimerising Fc or GST; small tags and cut ends)
chain: B20 chain with H15Q, D24N, T47A, Q82R
B36: variant PD-L2 IgV-Fc S67L, I86T (Fc fusion, not shown: a dimerising Fc or GST; small tags and cut ends)
chain: B20 chain with D24N, S67L, I86T
B37: variant PD-L2 IgV-Fc H15Q, K65R (Fc fusion, not shown: a dimerising Fc or GST; small tags and cut ends)
chain: B20 chain with H15Q, D24N, K65R
B38: variant PD-L2 IgV-Fc H15Q, E44D, R76G, I85F (Fc fusion, not shown: a dimerising Fc or GST; small tags and cut ends)
chain: B20 chain with H15Q, D24N, E44D, R76G, I85F
B39: variant PD-L2 IgV-Fc I13V, Q72H, R76G, I86T (Fc fusion, not shown: a dimerising Fc or GST; small tags and cut ends)
chain: B20 chain with I13V, D24N, Q72H, R76G, I86T
B40: variant PD-L2 IgV-Fc H15Q, Q72H, V89D (Fc fusion, not shown: a dimerising Fc or GST; small tags and cut ends)
chain: B20 chain with H15Q, D24N, Q72H, V89D
B41: variant PD-L2 IgV-Fc H15Q, T47A, Q72H, R76G, I86T (Fc fusion, not shown: a dimerising Fc or GST; small tags and cut ends)
chain: B20 chain with H15Q, D24N, T47A, Q72H, R76G, I86T
B42: variant PD-L2 IgV-Fc H15Q, S67L, R76G, I85F (Fc fusion, not shown: a dimerising Fc or GST; small tags and cut ends)
chain: B20 chain with H15Q, D24N, S67L, R76G, I85F
B43: variant PD-L2 IgV-Fc H15Q, S67L, Q72H, R76G, V89D (Fc fusion, not shown: a dimerising Fc or GST; small tags and cut ends)
chain: B20 chain with H15Q, D24N, S67L, Q72H, R76G, V89D
B44: variant PD-L2 IgV-Fc H15Q, S39I, S67L, V89D (Fc fusion, not shown: a dimerising Fc or GST; small tags and cut ends)
chain: B20 chain with H15Q, D24N, S39I, S67L, V89D
B45: variant PD-L2 IgV-Fc I13V, H15Q, S67L, I86T (Fc fusion, not shown: a dimerising Fc or GST; small tags and cut ends)
chain: B20 chain with I13V, H15Q, D24N, S67L, I86T
B46: variant PD-L2 IgV-Fc S67L, V89D (Fc fusion, not shown: a dimerising Fc or GST; small tags and cut ends)
chain: B20 chain with D24N, S67L, V89D
B47: variant PD-L2 IgV-Fc S67L, I85F (Fc fusion, not shown: a dimerising Fc or GST; small tags and cut ends)
chain: B20 chain with D24N, S67L, I85F
B48: variant PD-L2 IgV-Fc H15Q, T47A, Q72H, R76G (Fc fusion, not shown: a dimerising Fc or GST; small tags and cut ends)
chain: B20 chain with H15Q, D24N, T47A, Q72H, R76G

How the values were obtained:
[1] = target: PD-1 (Homo sapiens (Human)) (UniProt Q15116); experiment: flow cytometry, Jurkat/PD-1 cells; vs wildtype PD-L2 IgV-Fc
PD-1 (Homo sapiens (Human)), sequence (Q15116 21-288 limits assumed): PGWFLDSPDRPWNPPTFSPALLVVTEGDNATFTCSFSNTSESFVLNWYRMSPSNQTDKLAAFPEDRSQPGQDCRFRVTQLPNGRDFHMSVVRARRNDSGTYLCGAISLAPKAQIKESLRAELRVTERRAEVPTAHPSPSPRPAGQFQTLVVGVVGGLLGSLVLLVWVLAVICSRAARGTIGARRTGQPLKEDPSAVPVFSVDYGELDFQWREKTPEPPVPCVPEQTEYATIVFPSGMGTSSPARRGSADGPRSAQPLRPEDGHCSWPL

[2] = target: PD-1 (Homo sapiens (Human)) (UniProt Q15116); experiment: flow cytometry, Jurkat/PD-1 cells

| Fold increase over wildtype PD-L2 IgV-Fc [1] | MFI at 50 nM [2] | Binder |
| --- | --- | --- |
| 1.63 fold | 16000 | B1 |
| 6.85 fold | 67400 | B2 |
| 5.23 fold | 51500 | B3 |
| 0.41 fold | 4050 | B4 |
| 9.05 fold | 89100 | B5 |
| 3.36 fold | 33100 | B6 |
| 6.66 fold | 65600 | B7 |
| 0.57 fold | 5560 | B8 |
| 2.7 fold | 26600 | B9 |
| 6.45 fold | 63500 | B10 |
| 5.03 fold | 49500 | B11 |
| 7.74 fold | 76100 | B12 |
| 5.99 fold | 59000 | B13 |
| 1.8 fold | 17700 | B14 |
| 2.92 fold | 28700 | B15 |
| 6.43 fold | 63300 | B16 |
| 6.91 fold | 68000 | B17 |
| 5.52 fold | 54300 | B18 |
| 6.22 fold | 61200 | B19 |
| 0.14 fold | 1410 | B20 |
| 4.59 fold | 45200 | B21 |
| 0.34 fold | 3360 | B22 |
| 7.46 fold | 73400 | B23 |
| 2.43 fold | 24000 | B24 |

| Fold increase over wildtype PD-L2 IgV-Fc [1] | MFI at 50 nM [2] | Binder |
| --- | --- | --- |
| 4.57 fold | 45000 | B25 |
| 3.23 fold | 31800 | B26 |
| 1.29 fold | 12700 | B27 |
| 2.65 fold | 26100 | B28 |
| 0.3 fold | 2940 | B29 |
| 0.48 fold | 4740 | B30 |
| 7.26 fold | 71400 | B31 |
| 0.3 fold | 2930 | B32 |
| 4.8 fold | 47200 | B33 |
| 2.63 fold | 25900 | B34 |
| 6.62 fold | 65200 | B35 |
| 0.69 fold | 6830 | B36 |
| 1.37 fold | 13500 | B37 |
| 0.29 fold | 2880 | B38 |
| 1.06 fold | 10400 | B39 |
| 1.28 fold | 12600 | B40 |
| 3.26 fold | 32100 | B41 |
| 0.29 fold | 2870 | B42 |
| 4.08 fold | 40200 | B43 |
| 4.62 fold | 45500 | B44 |
| 2.19 fold | 21600 | B45 |
| 1.62 fold | 16000 | B46 |
| 0.05 fold | 529 | B47 |
| 1.68 fold | 16500 | B48 |
